Measurements taken from the DeepSol protein solubility set.

Experiment: soluble on expression in E. coli; label from the status in PepcDB or PDB records
For “GPLGSTRAKTQEEIKREEEQAIDEVLKIEFLELALGYQLISLADMKQGGDLLERIRGIRKKIASDYGFLMPQIRIRDNLQLPPTHYEIKLKGIVIGEGMVMPDKFLAMNTGFVNREIEGIPTKEPAFGMDALWIDAKNKEEAIIQGYTIIDPSTVIATHTSELVKKYAEDFITKDEVKSLLERLAKDYPTIVEESKKIPTGAIRSVLQALLHEKIPIKDMLTILETITDIAPLVQNDVNILTEQVRARLSRVITNAFKSEDGRLKFLTFSTDSEQFLLNKLRENGTSKSLLLNVGELQKLIEGVSEEAMKVLQKGIAPVILIVEPNLRKALSNQMEQARIDVVVLSHAELDPNSNFEALGTIHIN”, the “soluble on expression in E. coli” value was “soluble”. For “MSWSDIINNNLIGSGNVSKAAILGFDGAVWAKSDNFNISVEEAVAAGKAFTSLDALLGTGLRLEGQKFLVLNADNDRIIGKQGGSGFFIYKTIQAVIISIYEKGLQPEMCSKTTGALADYFRSIKY”, the “soluble on expression in E. coli” value was “not soluble”. For “MGSDKIHHHHHHMSLCLFCDQPFTGDLDMRRLLLPGKSKTSCLCPSCRQLFAQIGTAFCPQCGRQQDSGEICQDCQKWRRIYQGNFLHNQAVYCYNQAFHDLMVRYKRYGDYLLCQVLQELAAPAVQKLAADYYVPVPTSPEHRKKRGYDTVWEIFTPLLPLTPLLAKKAGAGAQGEKDKKARMQAKQNFFLNPEFRGTITGKIILLDDIYTTGRTLYHARDAIEKAFPKCQVESFSISR”, the “soluble on expression in E. coli” value was “not soluble”. With “MGSDKIHHHHHHMLTSGLYQSKNQCCGCELCSCVCPKNLIRMQPDDEGFLYPYIETDEGCVHCNKCIKICPMKSSNRNDIVLKASFGGQTRDIDGTRYSSSGGYATAISKQFILEKGVVVGVRYSSDFSKSEYAIAETIEELEQFRTSKYIQAEKGGIYQTIRNIKRKKILFIGLPCEVSALYNYWGRNTDNLYSISLVCHGPTTPKVQNLFASKLKENNNSQIKYFSVRYKESGWKPYYIYADFENGKHHQELFKGSSYEIAFQYLKRPSCSSCRYKLGDQEFGLVSDLTLGDFHAVEKNMLQYSPWGGVSQASVQSEKGEYLIDLARRQCNVEFIPEKYITKYNYAFHHPVAQKTGRESFKRILLREGLDCAAKSLLVQIPTCYINAKRRIISFLYNVKSYLISK” the “soluble on expression in E. coli” value was “not soluble”. In the case of “MGSDKIHHHHHHMSQTMMLIEKSSHCVSWYDTETGALQGRLALPDFPHEFVVDQDNHYAYVGHYGVQNSGVEGTDGRSVIVIDIRKQEIVHRYDLGEHARPHGISLDAQGRLYVLSEWSGHLLVKENPRAFDQGWDHVTPVGGEKPHLFALTGDGRTAYSMNLNSGDVTVLDPYDPTRIPVSIKTGEKPEGRCLREEAGVLYTSQRISNTVAVVDTKTLQVQRIFPTPQDPCRVYYDAKRNRLVTMNHHGGSFSVFDEATGEMLHEQKTPANPLALCIDDEAAYAYIAIDCEQVQRFNLDTFEVVQTFDTGKEPDVMVILPEGYSKHWEVNA”, the “soluble on expression in E. coli” value is reported as “not soluble”. With “MPAVTQPRGESKYDAIPGPLGPQSASLEGKVALVTGAGRGIGREMAMELGRRGCKVIVNYANSTESAEEVVAAIKKNGSDAACVKANVGVVEDIVRMFEEAVKIFGKLDIVCSNSGVVSFGHVKDVTPEEFDRVFTINTRGQFFVAREAYKHLEIGGRLILMGSITGQAKAVPKHAVYSGSKGAIETFARCMAIDMADKKITVNVVAPGGIKTDMYHAVCREYIPNGENLSNEEVDEYAAVQWSPLRRVGLPIDIARVVCFLASNDGGWVTGKVIGIDGGACM” the “soluble on expression in E. coli” value was “soluble”. With “MSLAVNLTEKTAEQLPDIDGIALYTAQAGVKKPGHTDLTLIAVAAGSTVGAVFTTNRFCAAPVHIAKSHLFDEDGVRALVINTGNANAGTGAQGRIDALAVCAAAARQIGCKPNQVLPFSTGVILEPLPADKIIAALPKMQPAFWNEAARAIMTTDTVPKAASREGKVGDKHTVRATGIAKGSGMIHPNMATMLGFIATDAKVSQPVLQLMTQEIADETFNTITVDGDTSTNDSFVIIATGKNSQSEIDNIADPRYAQLKELLCSLALELAQAIVRDGEGATKFITVRVENAKTRDEARQAAYAVARSPLVKTAFFASDPNLGRLLAAIGYAGVADLDTDLVEMYLDDILVAEHGGRAASYTEAQGQAVMSKAEITVRIKLHRGQAAATVYTCDLSHGYVSINADYRSEGHHHHHH” the “soluble on expression in E. coli” value was “soluble”. With “MGSDKIHHHHHHMNNNIPLRALQIFEACARLESCSLAANELCITQSAVSQQIKQLEDYFLEKLFYRQGGKINLTEAGIELRERLAPVFYDLNSVCSSLVQNMAGEVRVHSYTSLAARWLVPKMEQLRQMYPELNINVGMFQNDIEMSDMIADIFIVTRECQDGYTIIPLVTEKLVAFCSPDYLAQSQGISLATLDQHCLLYSKHKDYGVDWDTWFRNNDIAISPNQKKIFFNHNMLAVQAAIYGQGIVLGLEQTLKVELDSGNLVKLDLPTCLSGLTYYIAYKTSKKRDARIMRIVDWIIDNYPGDHPGDRTLAR” the “soluble on expression in E. coli” value was “not soluble”. In the case of “MGGSHHHHHHGMASALQRVSGLLSWTLSRVLWLSGLSEPGAARQPRIMEEKALEVYDLIRTIRDPEKPNTLEELEVVSESCVEVQEINEEEYLVIIRFTPTVPHCSLATLIGLCLRVKLQRCLPFKHKLEIYISEGTHSTEEDINKQINDKERVAAAMENPNLREIVEQCVLEPD”, the “soluble on expression in E. coli” value is reported as “not soluble”. For “MSLSAELLTSRDQQNFVVRATRADDVTIDVTSEAKWSVGDEKIVKLQGTTLLPAADGETKLTIEYSGFKSEVPVKVEQAGAERAVSFKQDVMPVFMRSGCNTGSCHGAARGKDGFRLSLFGFDPNGDYDRVTRELAARRINLAVPEASLLMEKAIGSVPHTGGKLFDQDSEYYSTLLRWLETGAQRDASEPPLCEKIEIYPPKAVLEGEGAKQQFIVKGFYADGTTRDITDLAVFLTSNDNSVPVGKDGMAVAANRGEAFVMARFDTHTVGSQVIVLPKDLNYEKPAIEGNYIDKLVGAKLHKLRITPSGLCTDEEYLRRVTIDITGQLPSEEEYAEFMADQSADKRVKLVDRLLERKEFAEIWAMKWAQLLMIKSENNRVSYKSAFLYNSWLQEKIANGVPLDEMVREMLGATGGTFSNPPTNFYEIERDTLKTAENVAQVFMGIRTQCAQCHNHPFDRWTMDDYYSFAAFFAQVGRKNAEDEREGHHHHHH”, the “soluble on expression in E. coli” value was “not soluble”. For “MGSDKIHHHHHHMIINNNIKELSIAHLQLIVCLIKHGNSCVVSDELGISQSSISYHLRRLRVIFADEMFIRTGKGLKPTERCIQIGHFAQDLINRVEEELIHANDFVPKQMKRELTLIAADTACGWFSTLFSDMQKTLPRVTLCARPWNLKSMEDLDSGAVDFGIHIIENSKKGIYDMDIAPCYRLCVVRDGHPLISKGEVTLKDLEQYPVLINDLGGWNNDGNSLMQRVLEKHGLKLNIAGRLGYINSIFTALHTSNAITYTSAASIPQSIPGLTLLRGPKEVNEVDCFYRLYISRMRYGSQETNYLIDFIYDSFKHFLTQQYNRIDIAAVINK”, the “soluble on expression in E. coli” value was “not soluble”. With “MGSDKIHHHHHHMTSLFYSPLIKYRVDVLPSSELKKENINTKALVVIGDGINREKISEDLELNPLLVRIVGKDSSKEEVEYNKVVLENAWLADLAPVEEIKSIDRRSLLRGEVKKAKKVDKPIYLSEYCNGLYKACNVCEFSCPYNAIKVDKKTGVNIDYTKCTSCGLCVASCPVSAIQFPSLSQNSIFELAKVKGEKRITCYRNTKNRGVKIPCLAMLSEVDIVLLRGSGNLTFECVGCELQDNLKDFIEVIKEYNERIGGISFYSPSEKIEAKETKELNTTPQSFYNRAEARRNISDELPYILFDVSIDNNRCTLCESCVNWCPTSAIMLRRSSGVEEIDFDPMKCIGCNICVNVCPESCKLEEGKTSEIPPNIASLTKVIKVEKSKSVNKEVRKLVGDELVRCRVCGAPIGSRKSLNHVKKIMIEKGASCEDEWLERCPKHRAEYAFQKQFSFNARFKPRGDLR” the “soluble on expression in E. coli” value was “not soluble”. For “MGKEYPYGLLRCFVRRIGKPTDSPRMTSAPTSNQSNPAWSRDELVLALNLYLLHRNGLPGVNHPDVLALSQALNLIGNATGVSKNQSFRNANGVCMKLNNFRRWDPSYTNNGRTGLAKGNKDEQLVWLEFANDPERLAEVVAAINANVQMIPASPIDLSAADDPGFFEAEEGKVLTRVHRVRERDKKIVKRKKEEALTQHGALQCEACGFNFSQTYGADVEGVIDVHHTKPLHTLQPGDKTKLADLALLCANCHRVLHSQRKWLSVAEVKERYQANLKQIQMLEHHHHHH”, the “soluble on expression in E. coli” value was “soluble”. With “SNNVLPTWSLDSNGEMRSRLSLSEVLDSGDLMKFAVDKTGCQFLEKAVKGSLTSYQKFQLFEQVIGRKDDFLKLSTNIFGNYLVQSVIGISLATNDDGYTKRQEKLKNFISSQMTDMCLDKFACRVIQSSLQNMDLSLACKLVQALPRDARLIAICVDQNANHVIQKVVAVIPLKNWEFIVDFVATPEHLRQICSDKYGCRVVQTIIEKLTADSMNVDLTSAAQNLRERALQRLMTSVTNRCQELATNEYANYIIQHIVSNDDLAVYRECIIEKCLMRNLLSLSQEKFASHVVEKAFLHAPLELLAEMMDEIFDGYIPHPDTGKDALDIMMFHQFGNYVVQCMLTICCDAVSGRRQTKEGGYDHAISFQDWLKKLHSRVTKERHRLSRFSSGKKMIETLANLRSTHPIYELQ” the “soluble on expression in E. coli” value was “soluble”. For “MSLMTKENNKSAAETEEWKKEYALRDELLKQEKENKKFEKELYQKQNKVRQAENKLKKEKSEYYNVLEDTEKYRMYIGEVGVQGEGVEVTLEDASYIPEGENVNSYIVHESHIFQVVNELYISGAALVAVNGQRLTHDSYIKCNGPVVTVDGVQHPAPFTVSAIGDPDVLLPSLNIAGGLIDQLSMDHISVSAEKEKNVQMKPILKTKEEGHHHHHH”, the “soluble on expression in E. coli” value was “soluble”. In the case of “MSEKKSELVGRHKRVAYMNTDATGSSPKFERMTNFTTMTNGKNPKEYSRQYVDEIAERADVVGYAPAIEYSFDRYTNNPVHEKIATIHDGEKLGDDAHVEVVVVDFFKKSDKGDKCYATKRTYAVIPDSDGDGTDALVYSGSLKSVSDIEEGYVTETDFTSKTVTYAKGDYAATELEHHHHHH”, the “soluble on expression in E. coli” value is reported as “soluble”. For “MTNDLIQLIDSLMVNIPAGEVVLRDDRIKKEWLVQIQPFLLAKYAVTMELYDAITNSTLNNFDKNHKPVVNISWNDAIAFCNVLSKKAGLKEYYSISDGGQIVKCNLDSNGYRLPSEAEWQYACKASTTGYTYGKLHDIAWYNENSNGEIHDVGQKEPNAWGLYDMLGNVWEWCYDLYDETVYGSYRIFRGGSWAETARGCGATCRRRSHPTFHIDDLGFRLARSILEHHHHHH”, the “soluble on expression in E. coli” value was “soluble”. In the case of “MGSDKIHHHHHHMEKQKEVQKEYEEYQYMLDTETWKKELSQFKLSSSEKISKNPKVSIIIANYNNAPYLKKMMDSLVQQTIGIEQLQVMFIDDCSTDHSLKVIEPYLERYPNIEIYQLLENTGGAHGPRNVGIVNARGEYSVFLDADDWYDLNALKYLSDLLDDSHDDFAVSGLIQSTDGHLMLKSKPYYVDGSFKNRSIQELPAEFYGWLGPQAIMLRTSLIHNNNLHFVNQRVADDVLFFYEAMRFSKTITQGERLTTYLNRDADNESLSKSINRTFMLSWLRALSYINQQFPDDLSKERMLARRLEWLIYDFCIRRNTGYPFSKRRLQDFKVQMDQYLGELNFDPSPYFRSDVRQIIWTFLQTNDIDGLYWFIQCQSIRWVLVNRFGYVSKTERSYYYPRLLKRFPAVRMNAYAEATQREGNTLSLNVYTHQKITGFEIKELKNPFETRQRLAFKKISETSYQVELPEKFSNKESRFTIVFDNYLEIGVKDFSKFFA”, the “soluble on expression in E. coli” value is reported as “not soluble”.
